B1: TICA0212: combination of TICA0162 and TICA0152; VH SEQ ID NO:72, VL SEQ ID NO:77 (antibody, listed as Homo sapiens, V domains shown)
VH: QVQLQESGAEVKKPGSSVRVSCKASGGTFDSYSIHWVRQAPGQGLEWMGGIIPAFGTLSSAQDFQARVTISADKSTSTAYMELSGLRSEDTAVYYCARGSFDYYFWSASHPPNDALAIWGQGTLVTVSS
VL: QSVVTQPPSVSAAPGQKVTISCSGSNSDIGNNYVSWYQQLPGTAPKLLIYDNNKRPSGIPDRFSGSKSGTSATLAITGLQAGDEADYYCGTWLYDRAVGLFGGGTKVTVL

How the values were obtained:
TICA0053 Fab = experiment: HTRF competition binding selectivity assay, TICA0053 His-Fab; parameters: species or system human; settings: first series (Table 2), not DMSO normalised; read-out: IC50 (uM) for inhibition of biotinylated ticagrelor binding to TICA0053 his-Fab
Experimental: (§1) Total Binding control wells were set up which contained all of the assay components above except that 5 ul assay buffer was added in place of the test selectivity compound addition. Negative Binding control wells were set up which contained all of the assay components included in the Total Binding control wells except that 5ul assay buffer was added in place of the His-Fab addition. Test compound serial titrations were either ½ or ⅓ depending on the particular experiment and top final assay compound concentrations were optimized on a compound specific basis. The concentration of biotinylated ticagrelor and His-Fab was optimized on a Fab specific basis in separate experiments. For the four Fabs investigated at the end of the lead isolation phase (TICA0010, TICA0049, TICA0053 and TICA0072) the final assay reagent concentrations used are set out in Table 1 below:
(§2) For the two Fabs investigated at the end of the lead optimization phase (TICA0162 and TICA0212) the final assay reagent concentrations used were 5nM biotinylated ticagrelor and 1 nM His Fab in both cases. […] In order to enable subsequent normalization of data to correct for any such vehicle related effects parallel titrations of DMSO alone were included in most experiments in which the final assay DMSO concentrations mirrored those of the test compound serial dilutions. At the end of the set up procedure that assay was incubated for 3hrs at RT before being read on an Envision plate reader using a standard read protocol.
The negative ratio value used in the calculation of % Delta F was derived from the Negative Binding control wells. % Delta F values were then used to calculate % Specific Binding values according to the equation below: Specific Binding (%)={(Sample Delta F−Negative Binding Delta F)/(Total Binding Delta F−Negative Binding Delta F)}×100
For standard calculations of % Specific Binding Total Binding Delta F was taken from Total Binding control wells which contained all of the aforementioned components of the assay but without inclusion of any competing test compound.
(§3) In those experiments where DMSO normalization was applied DMSO normalised % Specific Binding was calculated essentially according to the equation above except that in this case Total Binding Delta F was taken from wells containing all of the components in the Total Binding control wells as well as DMSO at a concentration equivalent to that in the relevant sample well.

TICA0162 Fab = experiment: HTRF competition binding selectivity assay, TICA0162 His-Fab; parameters: species or system human; settings: Table 7, DMSO normalised; 5 nM biotinylated ticagrelor, 1 nM His Fab; read-out: IC50 (uM) for inhibition of biotinylated ticagrelor binding to TICA0162 Fab
Experimental: as §1
as §2, with “protocol. […]” for “protocol.”
as §3

[1] = test system: ticagrelor mediated inhibition of ADP-induced platelet aggregation; experiment: Light transmission aggregometry in human PRP, reversal of ticagrelor; assay type: cell-based; settings: for mean extent of reversal of ticagrelor mediated inhibition: Example 10, 1 μM Fab, n=3
Experimental: The extent and potency of TICA0212/MEDI2452 to reverse ticagrelor or TAM mediated inhibition of ADP-induced platelet aggregation was determined in human platelet rich plasma (PRP) using light transmission aggregometry.
For the in vitro human PRP assay, blood was collected from fasted healthy volunteers by vein puncture of vena cephalica. […] The anticoagulated human blood was centrifuged at 240× g for 15 min. PRP was carefully removed and transferred to a clean vial. Platelet poor plasma (PPP) was prepared by centrifugation of the PRP at 2000× g for 15 min. Light transmission aggregometry (LTA) was evaluated in PRP by the Platelet Aggregation Profiler (PAP-8E, Bio/Data Corporation, PA, USA.). Zero % aggregation was defined as the light transmission of PRP and 100% aggregation was defined as the light transmission of PPP.
PRP was preincubated with 1 μM ticagrelor or TAM for 1 hour before co-incubating with different concentrations of TICA0212 or an isotype control Fab for 30 minutes. Platelet aggregation was initiated by addition of 20 uM ADP and was continuously recorded for 6 min. Data for final aggregation (FA) extent at 6 min was analysed.
The time of onset of TICA0212/MEDI2452 to reverse ticagrelor or TAM was determined in human platelet rich plasma (PRP) using light transmission aggregometry as in example 8. PRP was preincubated with 1 μM ticagrelor or TAM for 1 hour before adding 1 μM TICA0212/MEDI2452 and co-incubating for 5, 10, 15, 30 and 60 min, or adding an isotype control Fab for 30 min. Platelet aggregation was initiated by addition of 20 μM ADP and was continuously recorded for 6 min. Data for final aggregation (FA) extent at 6 min was analyzed.

[2] = target: TICA0159 IgG binding to biotinylated ticagrelor; experiment: Second generation HTRF epitope competition assay
Experimental: Purified parent TICA0072 (scFv or Fab) was used as a benchmark in all experiments such that improvements in IC50 measured with optimized variants (scFv or Fab) could be expressed as fold improvements over parent TICA0072. Total Binding Control Wells contained all assay components except that 5 ul assay buffer was added in place of the purified scFv or Fab sample. Negative Binding control wells contained all of the components of the Total Binding control wells except that 5 ul of assay buffer was added in place of the TICA0072 IgG.
In both single point HTS and multipoint IC50 profiling versions of the assay. plates were incubated for 3 hrs at RT before being read on an Envision plate reader using a standard HTRF read protocol in which samples are excited at 337 nm and time resolved fluorescence emission is measured at both 620 nm and 665 nM.
Raw 665 nm and 620 nm counts were used to calculate Delta F (%) and % Specific Binding according to the equations described earlier in Assays 1 and 4, respectively. For multipoint secondary profiling experiments IC50 values were determined using Graphpad Prism software using sigmoidal dose response (variable slope) curve fitting (4 parameter logistic equation).
This assay was used only in multipoint IC50 profiling format (as opposed to HTS format) and was performed essentially identically to the method given in Assay 5 (above) for multipoint IC50 profiling of purified Fab variants in the parent TICA0072 IgG based epitope competition assay. The only difference being that TICA0159 IgG was used in place of TICA0072 IgG at the appropriate point in the assay set up but at the same 16nM final assay concentration. In all other respects this assay was performed exactly as described above in the multipoint secondary profiling version for purified Fab.

| Molecule | IC50 (TICA0053 Fab) | IC50 (TICA0162 Fab) | IC50 ([1]; 1 μM ticagrelor, 20 μM ADP, human PRP, 30 min co-incubation, mean n=5, read-out: IC50, half-maximum reversal of ticagrelor mediated inhibition of ADP-induced platelet aggregation) | mean extent of reversal of ticagrelor ([1]; Example 9, 1:1 conditions (1 μM Fab: 1 μM ticagrelor), 30 min incubation) | mean extent of reversal of ticagrelor mediated inhibition ([1]; 1 μM ticagrelor, co-incubation 5 min) | mean extent of reversal of ticagrelor mediated inhibition ([1]; 1 μM ticagrelor, co-incubation 10 min) | mean extent of reversal of ticagrelor mediated inhibition ([1]; 1 μM ticagrelor, co-incubation 15 min) | mean extent of reversal of ticagrelor mediated inhibition ([1]; 1 μM ticagrelor, co-incubation 30 min) | mean extent of reversal of ticagrelor mediated inhibition ([1]; 1 μM ticagrelor, co-incubation 60 min) | IC50 ([2]; Fab, 16 nM TICA0159 IgG, 1 nM biotinylated ticagrelor) | Fold Improved ([2]; IC50 relative to parent TICA0072 Fab) | improvement in IC50 relative to the parent TICA0072 Fab ([2]; second generation epitope competition assay) |
| --- | --- | --- | --- | --- | --- | --- | --- | --- | --- | --- | --- | --- |
| CCCSc1nc(N[C@@H]2C[C@H]2c2ccc(F)c(F)c2)c2nnn([C@@H]3C[C@H](OCCO)[C@@H](O)[C@H]3O)c2n1 [Ticagrelor, (1S,2S,3R,5S)-3-[7-{[(1R,2S)-2-(3,4-difluorophenyl)cyclopropyl]amino}-5-(propylthio)-3H-[1,2,3]triazolo[4,5-d]pyrimidin-3-yl]-5-(2-hydroxyethoxy)cyclopentane-1,2-diol] | 0.109 µM | 0.023 µM |  |  |  |  |  |  |  |  |  |  |
| B1 |  |  | 640 nM | 78% | 85% | 69% | 74% | 80% | 81% | 12 nM | 142.8 | approximately 2 log |

From patent publication US12391768B2, “Antibodies to ticagrelor and methods of use” (MEDIMMUNE LIMITED, priority 2014, dated 2025)
